Test results published in PMC6474815.

Tested on: CC(=O)SCCNC(=O)CCNC(=O)[C@H](O)C(C)(C)COP(=O)(O)OP(=O)(O)OC[C@H]1O[C@@H](n2cnc3c(N)ncnc32)[C@H](O)[C@@H]1OP(=O)(O)O
Test: discontinuous colorimetric DTNB assay
Type: biochemical, Pseudomonas aeruginosa
Conditions: 5 mM polymyxin B constant, 50 mM Tris-HCl pH 8.0, 37 °C

PA3944 (cleaved) (Pseudomonas aeruginosa PAO1)
Km: 137 ± 20 µM
kcat: 0.61 s⁻¹
kcat/Km: 4450 M⁻¹ s⁻¹

PA3944 (tagged) (Pseudomonas aeruginosa PAO1)
Km: 118 ± 28 µM
kcat: 0.602 s⁻¹
kcat/Km: 5100 M⁻¹ s⁻¹
